Results on three molecules are retold here after patent US20050037969A1 (ARBOR VITA, published 2005).

Ends that are not written are not given here. * marks the point of attachment. Biotin = O=C1N[C@H]2[C@H](CS[C@H]2CCCCC(=O)*)N1

B1: CC CKR-4 C-terminal peptide AA44L (peptide)
peptide: Biotin-DTPSSSYTQSTMDHDLHDAL
notes: Only the last four residues are seen in the excerpts

In one assay the target is T1, NSP PDZ-GST fusion protein (Homo sapiens (Human), UniProt Q92743 370-466).
T1 construct: The label NSP is not explained in the excerpts
T1 sequence (Q92743 other isoform, or with tags, fused parts or gaps limits assumed): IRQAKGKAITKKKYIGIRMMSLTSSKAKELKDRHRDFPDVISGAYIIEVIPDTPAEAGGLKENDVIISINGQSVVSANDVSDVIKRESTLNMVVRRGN
As to the kind of experiment: A/G assays.
In the case of B1, the binding result is “no binding”.

Turning to Biotin-HKAEIHAQPSDKERLTSDA (also called CD49F (Aform, alpha6)) [CD49F C-terminal peptide AA12L, biotinylated], the binding result is “no binding”.

Turning to Biotin-ARHRVTSYTSSSVNVSSNL [CDW128A (IL8RA) C-terminal peptide AA29.1L, biotinylated], the binding result is reported as “no binding”.

The target of a further assay is T2, K559 PDZ-GST fusion protein (Homo sapiens (Human), UniProt Q9Y6V0 4489-4593).
T2 construct: Order of GST and PDZ part and limits not seen in the excerpts
T2 sequence: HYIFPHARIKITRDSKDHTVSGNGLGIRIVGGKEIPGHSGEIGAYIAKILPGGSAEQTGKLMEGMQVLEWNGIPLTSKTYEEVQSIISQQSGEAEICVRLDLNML
As to the kind of experiment: A/G assays.
For the molecule B1, the binding result is on record as “no binding”.

Regarding Biotin-HKAEIHAQPSDKERLTSDA (also called CD49F (Aform, alpha6)) [CD49F C-terminal peptide AA12L, biotinylated], the binding result is listed as “no binding”.

Biotin-ARHRVTSYTSSSVNVSSNL [CDW128A (IL8RA) C-terminal peptide AA29.1L, biotinylated]: the binding result was “no binding”.

For another assay, the target named is T3, GST-cytohesin binding protein PDZ domain fusion protein (Homo sapiens (Human), UniProt O60759 74-165).
T3 construct: also called CBP; not shown: glutathione S-transferase encoded by vector pGEX-3X (Pharmacia)
T3 sequence: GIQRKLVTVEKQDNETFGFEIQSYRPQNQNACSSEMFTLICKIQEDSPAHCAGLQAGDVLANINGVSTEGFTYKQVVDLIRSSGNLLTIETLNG
The experiment in a line: A/G assays.
As to B1, the binding result is “no binding”.

For the molecule Biotin-HKAEIHAQPSDKERLTSDA (also called CD49F (Aform, alpha6)) [CD49F C-terminal peptide AA12L, biotinylated], the binding result is “no binding”.

For the molecule Biotin-ARHRVTSYTSSSVNVSSNL [CDW128A (IL8RA) C-terminal peptide AA29.1L, biotinylated], the binding result is reported as “no binding”.

A further assay addresses T4, X11β PDZ-GST fusion protein (Rattus norvegicus (Rat), UniProt O35431 560-745).
T4 construct: Order of GST and PDZ part and limits not seen in the excerpts
T4 chain: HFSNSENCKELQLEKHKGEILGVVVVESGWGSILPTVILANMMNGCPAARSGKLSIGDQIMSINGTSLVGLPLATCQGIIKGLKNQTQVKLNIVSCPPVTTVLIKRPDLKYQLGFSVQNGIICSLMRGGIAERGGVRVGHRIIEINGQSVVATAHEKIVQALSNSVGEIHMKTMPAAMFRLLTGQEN
The experiment in a line: A/G assays.
Take B1: the binding result was “no binding”.

On to Biotin-HKAEIHAQPSDKERLTSDA (also called CD49F (Aform, alpha6)) [CD49F C-terminal peptide AA12L, biotinylated], for which the binding result is recorded as “no binding”.

For Biotin-ARHRVTSYTSSSVNVSSNL [CDW128A (IL8RA) C-terminal peptide AA29.1L, biotinylated], the binding result was “no binding”.

The target of another assay is T5, GST-LIM protein PDZ domain fusion protein (Human, UniProt Q96HC4 2-85).
T5 construct: also called Human LIM protein; not shown: glutathione S-transferase encoded by vector pGEX-3X (Pharmacia)
T5 sequence: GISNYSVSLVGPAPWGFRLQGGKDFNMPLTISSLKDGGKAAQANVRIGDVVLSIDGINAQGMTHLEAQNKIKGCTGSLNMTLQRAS
The experiment in a line: A/G assays.
As for B1, the binding result is given as “no binding”.

As to Biotin-HKAEIHAQPSDKERLTSDA (also called CD49F (Aform, alpha6)) [CD49F C-terminal peptide AA12L, biotinylated], the binding result is given as “no binding”.

Biotin-ARHRVTSYTSSSVNVSSNL [CDW128A (IL8RA) C-terminal peptide AA29.1L, biotinylated]: the binding result is recorded as “no binding”.

The target in another assay is T6, GST-PTN-4 PDZ domain fusion protein (Homo sapiens (Human), UniProt P29074 517-605).
T6 construct: also called protein-tyrosine phosphatase meg1; not shown: glutathione S-transferase encoded by vector pGEX-3X (Pharmacia)
T6 sequence: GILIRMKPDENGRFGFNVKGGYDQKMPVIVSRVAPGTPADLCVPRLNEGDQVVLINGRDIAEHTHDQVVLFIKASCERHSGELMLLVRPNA
The experiment in a line: A/G assays.
As for B1, the binding result is “no binding”.

As to Biotin-HKAEIHAQPSDKERLTSDA (also called CD49F (Aform, alpha6)) [CD49F C-terminal peptide AA12L, biotinylated], the binding result is on record as “no binding”.

As to Biotin-ARHRVTSYTSSSVNVSSNL [CDW128A (IL8RA) C-terminal peptide AA29.1L, biotinylated], the binding result was “no binding”.

A further assay concerns the target T7, KIAA0807 (PDZ domain)-GST fusion protein (human, UniProt Q6P0Q8 1104-1192).
T7 construct: also called K807; KIAA807; not shown: glutathione S-transferase encoded by vector pGEX-3X (Pharmacia)
T7 sequence: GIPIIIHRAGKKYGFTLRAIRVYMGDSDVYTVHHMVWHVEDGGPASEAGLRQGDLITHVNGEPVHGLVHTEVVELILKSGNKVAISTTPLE
The experiment in a line: A/G assays.
For the molecule B1, the binding result was “no binding”.

As for Biotin-HKAEIHAQPSDKERLTSDA (also called CD49F (Aform, alpha6)) [CD49F C-terminal peptide AA12L, biotinylated], the binding result is “no binding”.

Take Biotin-ARHRVTSYTSSSVNVSSNL [CDW128A (IL8RA) C-terminal peptide AA29.1L, biotinylated]: the binding result was “no binding”.

The next assay concerns the target T8, GST-PDZK1 fusion protein (PDZ domains 2-4) (Homo sapiens, UniProt Q5T2W1 134-457).
T8 construct: not shown: glutathione S-transferase encoded by vector pGEX-3X (Pharmacia)
T8 sequence: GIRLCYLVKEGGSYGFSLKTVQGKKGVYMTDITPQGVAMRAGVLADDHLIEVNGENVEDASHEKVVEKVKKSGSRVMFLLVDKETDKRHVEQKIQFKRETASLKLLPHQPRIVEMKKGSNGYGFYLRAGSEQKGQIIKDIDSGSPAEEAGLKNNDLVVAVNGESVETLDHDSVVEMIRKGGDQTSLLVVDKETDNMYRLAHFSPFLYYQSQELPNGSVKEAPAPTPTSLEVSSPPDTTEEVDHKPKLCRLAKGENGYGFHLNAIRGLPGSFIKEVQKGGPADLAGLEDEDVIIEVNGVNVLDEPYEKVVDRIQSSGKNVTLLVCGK
The experiment in a line: A/G assays.
As for B1, the binding result was “no binding”.

Biotin-HKAEIHAQPSDKERLTSDA (also called CD49F (Aform, alpha6)) [CD49F C-terminal peptide AA12L, biotinylated]: the binding result was “no binding”.

Turning to Biotin-ARHRVTSYTSSSVNVSSNL [CDW128A (IL8RA) C-terminal peptide AA29.1L, biotinylated], the binding result is recorded as “no binding”.

The target of a further assay is T9, GST-CASK PDZ domain fusion protein (Homo sapiens, UniProt O14936 486-575).
T9 construct: also called Homo sapiens CASK protein
T9 sequence: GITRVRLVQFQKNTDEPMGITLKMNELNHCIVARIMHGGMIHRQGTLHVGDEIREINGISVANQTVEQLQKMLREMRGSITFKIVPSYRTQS
As to the kind of experiment: A/G assays.
B1: the binding result is given as “no binding”.

Consider Biotin-HKAEIHAQPSDKERLTSDA (also called CD49F (Aform, alpha6)) [CD49F C-terminal peptide AA12L, biotinylated], for which the binding result is “no binding”.

On to Biotin-ARHRVTSYTSSSVNVSSNL [CDW128A (IL8RA) C-terminal peptide AA29.1L, biotinylated], for which the binding result is given as “no binding”.

The target in the next assay is T10, GST-RGS12 PDZ domain fusion protein (human, UniProt O14924 17-85).
T10 construct: also called human regulator of G-protein signalling 12; not shown: glutathione S-transferase encoded by vector pGEX-3X (Pharmacia)
T10 sequence: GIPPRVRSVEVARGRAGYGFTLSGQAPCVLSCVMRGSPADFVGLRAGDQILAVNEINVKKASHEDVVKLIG
As to the kind of experiment: A/G assays.
For B1, the binding result is “no binding”.

For Biotin-HKAEIHAQPSDKERLTSDA (also called CD49F (Aform, alpha6)) [CD49F C-terminal peptide AA12L, biotinylated], the binding result is given as “no binding”.

Regarding Biotin-ARHRVTSYTSSSVNVSSNL [CDW128A (IL8RA) C-terminal peptide AA29.1L, biotinylated], the binding result is reported as “no binding”.

For the next assay, the target named is T11, MINT3 PDZ-GST fusion protein.
T11 construct: Order of GST and PDZ part and limits not seen in the excerpts
T11 chain: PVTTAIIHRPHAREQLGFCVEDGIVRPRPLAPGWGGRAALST
The experiment in a line: A/G assays.
In the case of B1, the binding result is “no binding”.

Consider Biotin-HKAEIHAQPSDKERLTSDA (also called CD49F (Aform, alpha6)) [CD49F C-terminal peptide AA12L, biotinylated], for which the binding result is recorded as “no binding”.

For Biotin-ARHRVTSYTSSSVNVSSNL [CDW128A (IL8RA) C-terminal peptide AA29.1L, biotinylated], the binding result was “no binding”.

The next assay deals with T12, NOS1 PDZ-GST fusion protein (Homo sapiens (Human), UniProt P29475 11-100).
T12 construct: Order of GST and PDZ part and limits not seen in the excerpts
T12 sequence (P29475 11-100 limits assumed): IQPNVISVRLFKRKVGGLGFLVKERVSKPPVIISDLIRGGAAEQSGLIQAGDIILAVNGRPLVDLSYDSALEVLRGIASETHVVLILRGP
The experiment in a line: A/G assays.
As to B1, the binding result was “no binding”.

Turning to Biotin-HKAEIHAQPSDKERLTSDA (also called CD49F (Aform, alpha6)) [CD49F C-terminal peptide AA12L, biotinylated], the binding result is listed as “no binding”.

With Biotin-ARHRVTSYTSSSVNVSSNL [CDW128A (IL8RA) C-terminal peptide AA29.1L, biotinylated], the binding result was “no binding”.

In a further assay the target is T13, GST-mouse syntenin fusion protein (Mus musculus, UniProt O08992 108-286).
T13 construct: also called Mus musculus Syntenin; not shown: glutathione S-transferase encoded by vector pGEX-3X (Pharmacia)
T13 chain: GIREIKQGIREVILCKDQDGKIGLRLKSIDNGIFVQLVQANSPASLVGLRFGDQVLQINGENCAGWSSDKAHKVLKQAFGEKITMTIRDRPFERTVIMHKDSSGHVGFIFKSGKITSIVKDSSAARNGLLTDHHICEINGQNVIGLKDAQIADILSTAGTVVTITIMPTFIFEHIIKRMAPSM
As to the kind of experiment: A/G assays.
As for B1, the binding result was “no binding”.

For the molecule Biotin-HKAEIHAQPSDKERLTSDA (also called CD49F (Aform, alpha6)) [CD49F C-terminal peptide AA12L, biotinylated], the binding result was “no binding”.

As for Biotin-ARHRVTSYTSSSVNVSSNL [CDW128A (IL8RA) C-terminal peptide AA29.1L, biotinylated], the binding result was “no binding”.

The target in the next assay is T14, GST-MPP1 PDZ domain fusion protein (Homo sapiens (Human), UniProt Q00013 67-152).
T14 construct: also called p55; 55 Kd erythrocyte membrane protein; not shown: glutathione S-transferase encoded by vector pGEX-3X (Pharmacia)
T14 sequence: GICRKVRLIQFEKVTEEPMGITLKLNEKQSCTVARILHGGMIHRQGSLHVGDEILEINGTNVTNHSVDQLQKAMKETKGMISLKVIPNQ
The experiment in a line: A/G assays.
Regarding B1, the binding result is “no binding”.

As for Biotin-HKAEIHAQPSDKERLTSDA (also called CD49F (Aform, alpha6)) [CD49F C-terminal peptide AA12L, biotinylated], the binding result is given as “no binding”.

As for Biotin-ARHRVTSYTSSSVNVSSNL [CDW128A (IL8RA) C-terminal peptide AA29.1L, biotinylated], the binding result was “no binding”.

Another assay has as its target T15, GST-TAX-IP40 PDZ domain fusion protein (human, UniProt Q6B4M5 150-252 (rat entry)).
T15 construct: also called TAX40; not shown: glutathione S-transferase encoded by vector pGEX-3X (Pharmacia)
T15 sequence: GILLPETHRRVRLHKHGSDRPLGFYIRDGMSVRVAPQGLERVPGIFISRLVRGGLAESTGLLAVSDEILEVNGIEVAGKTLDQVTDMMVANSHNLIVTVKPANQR
The experiment in a line: A/G assays.
As for B1, the binding result is “no binding”.

Regarding Biotin-HKAEIHAQPSDKERLTSDA (also called CD49F (Aform, alpha6)) [CD49F C-terminal peptide AA12L, biotinylated], the binding result is “no binding”.

Take Biotin-ARHRVTSYTSSSVNVSSNL [CDW128A (IL8RA) C-terminal peptide AA29.1L, biotinylated]: the binding result is listed as “no binding”.
